# Where a chain is given by its changes, count along the chain named.
# T1: human TGFβ2 (transforming growth factor beta 2) (human, UniProt P61812 303-414)
# T1 construct: mature; Active dimer; also called TGFbeta2; rhTGF β2
# T1 sequence (looked up): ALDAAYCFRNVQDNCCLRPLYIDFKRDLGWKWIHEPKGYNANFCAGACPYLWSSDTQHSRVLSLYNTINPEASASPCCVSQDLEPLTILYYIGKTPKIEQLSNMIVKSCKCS
# T2: TGFβ3 (transforming growth factor beta 3) (UniProt P10600 301-412)
# T2 construct: mature; also called TGFbeta3
# T2 sequence (looked up): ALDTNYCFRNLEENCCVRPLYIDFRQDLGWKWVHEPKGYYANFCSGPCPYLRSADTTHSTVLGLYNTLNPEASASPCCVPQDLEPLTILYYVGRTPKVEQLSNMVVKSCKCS
# B1: 14F12 scFv (scFv)
# chain: EIQLVESGGGVVQPGRSLRLSCAASGFTFSSYAMHWVRQAPAKGLEWVAVISYDGSNKYYADSVKGRFTISRDNSKNTLYLQMNSLRAEDTAVYYCARAGLETTWGQGTLVTVSSSGGGGGSGGGGSGGGGSSSELTQDPAVSVALGQTVRITCQGDSLRNYYANWYQQKPGQAPVLVIYGKNNRPSGIPDRFSGSSSGNTASLTITGARAEDEGVYYCNSRDSSGAVFGGGTKLTVLG
# B2: 6B1 IgG4 (antibody, V domains shown)
# VH: EVQLVESGGGVVQPGRSLRLSCAASGFTFSSYGMHWVRQAPGKGLEWVAVIWYDGSNKYYADSVKGRFTISRDNSKNTLYLQMDSLRAEDTAVYYCGRTLESSLWGQGTLVTVSS
# VL: SSELTQDPAVSVALGQTVRITCQGDSLRSYYASWYQQKPGQAPVLVIYGKNNRPSGIPDRFSGSSSGNTASLTITGAQAEDEADYYCNSRDSSSTHRGVFGGGTKLTVLG
# B3: 6A5 IgG4 (antibody, V domains shown)
# VH: B2 VH
# VL: SSELTQDPAVSVALGQTVRITCQGDSLRSYYASWYQQKPGQAPVLVIYGKNNRPSGIPDRFAGSNSGNTASLTITGAQAEDEADYYCSSRDSSGNHVVFGGGTKLTVLG
# B4: 27C1/10A6 IgG4 (antibody, V domains shown)
# VH: QVQLVESGGGVVQPGRSLRLSCAASGLTFSSYDMHWVRQPPAKGLEWVAVISYDGSSKYYADSVKGRFTISRDNSKNTLYLQMNSLRAEDTAVYYCARTGEYSGYDTSGVELWGQGTTVTVSS
# VL: B2 VL with S1H, S2V, E3I, R28K, K50E, N52S, S94G, R97L, G98E
# B5: 6H1 IgG4 (antibody, V domains shown)
# VH: B2 VH
# VL: DVVMTQSPSSLSASVGDRVTITCRASQGISNYLAWYQQKPGKAPKLLIYKASTLESGVPSRFSGSGSGTEFTLTISSLQPEDFATYYCQQSYSTPRTFGQGTKVDIKR
# B6: 6B1 scFv (scFv)
# chain: EVQLVESGGGVVQPGRSLRLSCAASGFTFSSYGMHWVRQAPGKGLEWVAVIWYDGSNKYYADSVKGRFTISRDNSKNTLYLQMDSLRAEDTAVYYCGRTLESSLWGQGTLVTVSSGGGGSGGGGSGGGGSSSELTQDPAVSVALGQTVRITCQGDSLRSYYASWYQQKPGQAPVLVIYGKNNRPSGIPDRFSGSSSGNTASLTITGAQAEDEADYYCNSRDSSSTHRGVFGGGTKLTVLG
# B7: 6A5 scFv (scFv)
# chain: EVQLVESGGGVVQPGRSLRLSCAASGFTFSSYGMHWVRQAPGKGLEWVAVIWYDGSNKYYADSVKGRFTISRDNSKNTLYLQMDSLRAEDTAVYYCGRTLESSLWGQGTLVTVSSGGGGSGGGGSGGGGSSSELTQDPAVSVALGQTVRITCQGDSLRSYYASWYQQKPGQAPVLVIYGKNNRPSGIPDRFAGSNSGNTASLTITGAQAEDEADYYCSSRDSSGNHVVFGGGTKLTVLG
# B8: 10A6 scFv (scFv)
# chain: QVQLVESGGGVVQPGRSLRLSCAASGFTFSSYGMHWVRQAPGKGLEWVAVISYDGSNKYYADSVKGRFTISRDNSKNTLYLQMNSLRAEDTAVYYCAKTGEYSGYDSSGVDVWGKGTTVTVSSGGGGSGGGGSGGGGSHVILTQDPAVSVALGQTVRITCQGDSLKSYYASWYQQKPGQAPVLVIYGENSRPSGIPDRFSGSSSGNTASLTITGAQAEDEADYYCNSRDSSGTHLEVFGGGTKLTVLG
# B9: 6H1 scFv (scFv)
# chain: EVQLVESGGGVVQPGRSLRLSCAASGFTFSSYGMHWVRQAPGKGLEWVAVIWYDGSNKYYADSVKGRFTISRDNSKNTLYLQMDSLRAEDTAVYYCGRTLESSLWGQGTLVTVSSGGGGSGGGGSGGGGSDVVMTQSPSSLSASVGDRVTITCRASQGISNYLAWYQQKPGKAPKLLIYKASTLESGVPSRFSGSGSGTEFTLTISSLQPEDFATYYCQQSYSTPRTFGQGTKVDIKR
# Columns and labels:
# [1] = target: T3, human TGFβ1 (transforming growth factor beta 1) (human, UniProt P01137 279-390); experiment: BIACore, scFv (35µl) injected over amine-coupled antigen on CM5 chip; chip as printed
# T3 construct: mature; Active dimer; also called TGFbeta1
# [2] = target: T1, human TGFβ2 (transforming growth factor …); experiment: as above
# [3] = target: T1, human TGFβ2 (transforming growth factor …); experiment: cell-based or functional assay
# [4] = target: T2, TGFβ3 (transforming growth factor beta …); experiment: A549 cell radioreceptor assay, inhibition of 125I-TGFβ3 binding to receptors
# [5] = target: T2, TGFβ3 (transforming growth factor beta …); experiment: BIAcore 2000, ratio of dissociation constants
# [6] = target: T2, TGFβ3 (transforming growth factor beta …); experiment: BIAcore 2000, antigen immobilised, antibody as analyte; koff divided by kon
# [7] = target: T2, TGFβ3 (transforming growth factor beta …); experiment: cell-based or functional assay
# [8] = target: T2, TGFβ3 (transforming growth factor beta …); experiment: BIAcore 2000, antigen immobilised, antibody as analyte
# [9] = target: T1, human TGFβ2 (transforming growth factor …); experiment: cell-based or functional assay; remark: listed apart in the source
# [10] = target: T2, TGFβ3 (transforming growth factor beta …); experiment: A549 cell radioreceptor assay
# [11] = target: T1, human TGFβ2 (transforming growth factor …); experiment: BIACore, IgG4 over TGFβ2-coated chip
# [12] = target: T2, TGFβ3 (transforming growth factor beta …); experiment: cell-based or functional assay; remark: listed apart in the source
# [13] = target: T3, human TGFβ1 (transforming growth factor …); experiment: specificity ELISA, TGFβ isoforms coated at 0.2µg/ml
# T3 sequence (P01137 279-390 limits assumed): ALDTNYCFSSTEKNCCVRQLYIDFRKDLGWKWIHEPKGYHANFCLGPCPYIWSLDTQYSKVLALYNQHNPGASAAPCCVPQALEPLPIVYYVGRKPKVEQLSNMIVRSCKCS
Binder,total increase in resonance units (RU) [1],total increase in resonance units (RU) [2],I.C.50 in TF1 assay (neutralisation of the TGFβ2 inhibition of IL-5 induced TF1 cell proliferation) [3],also measured
B1,616 RU,115 RU,90 nM,
B2,,,11 nM,IC50 [4]: 0.004 µM; cross-reactivity with TGFβ3 (ratio of dissociation constants for TGFβ3 and TGFβ2) [5]: 9%; Kd [6]: 0.01 µM; TF1 cell proliferation assay IC50 (nM IgG) [7]: 11 nM; koff [8]: 0.00045 s⁻¹; kon [8]: 45000 M⁻¹ s⁻¹; IC50 in the TF1 neutralisation assay (6B1 IgG4 from cell line 5D8-2A6) [9]: 0.0018 µM; cross-reactivity with TGFβ3 relative to TGFβ2 [10]: < 2%
B3,,,150 nM,
B4,,,,fold higher dissociation constant for TGFβ2 compared to TGFβ1 [11]: ≥ 10 fold
B5,,,100 nM,IC50 in the TF1 neutralisation assay (6H1 IgG4 from a CHO cell line) [9]: 0.015 µM; IC50 of neutralisation of TGFβ2 in the TF1 cell proliferation assay [9]: 0.012 µM; IC50 of neutralisation of TGFβ3 in the TF1 cell proliferation assay [12]: ~0.02 µM
B6,,,15 nM,
B7,480 RU,71 RU,8 nM,
B8,,,,fold ELISA signal on TGFβ1 against the signal on TGFβ2 and TGFβ3 [13]: ≥ 5 fold
B9,686 RU,77 RU,1.5 nM,

# Reference: patent publication EP0853661B1 (CAMBRIDGE ANTIBODY TECHNOLOGY LIMITED, dated 2000)
